Several values for one entry are separate records, joined by “and”; a condition that tells them apart may be missing. Equal values may be shown once.
Assays:
[1] = molecular target: CD95-His (Sino Biological) (UniProt P25445)
[2] = molecular target: IZ-CD95L (after His-tag cleavage with TEV protease) (human); assay: SEC; Superdex 75 10/300 GL (Fig. 3A) or ENrich SEC 70 10 x 300 (Fig. 3B, C); PBS pH 7.4, 0.3 ml/min; sizes from a standard curve of protein standards; peak shares from Gaussian fits
[3] = molecular target: biotin-IZ-CD95L (human); assay: as above
[4] = molecular target: CD95-His (Sino Biological) (UniProt P25445); assay: ELISA; CD95-His coated at 2 µg/ml in PBS overnight at 4 °C; biotin-IZ-CD95L or FLAG-CD95L 0.1 nM to 100 nM in 0.5% BSA/PBST, 2 h at r.t.; detected with anti-CD95L antibody and HRP secondary; 4-parameter logistic fit

Chain of CD95-His (Sino Biological) (P25445 26-173): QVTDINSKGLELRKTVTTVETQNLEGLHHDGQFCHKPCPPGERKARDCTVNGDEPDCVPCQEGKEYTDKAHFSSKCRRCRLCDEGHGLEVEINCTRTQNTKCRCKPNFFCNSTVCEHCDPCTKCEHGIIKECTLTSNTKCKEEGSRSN

Row | Max (%) of apoptotic Hela WT cells (endogenous CD95), apoptosis dynamics assay, 1000 ng/ml ligand [1] [%] | percent of the protein in the trimer peak (Peak B, Gaussian fit) [2] [%] | stoichiometry N [2] | percent of the protein in the trimer peak (Peak B, Gaussian fit) [3] [%] | stoichiometry N [3] | Kd [4] [nM] | Substance
1 | 72.9 | 55 | 3 and 2 |  |  |  | IZ-CD95L (after His-tag cleavage with TEV protease) (ligand)
2 | 75.7 |  |  | 48 | 3 and 2 | 0.68 | biotin-IZ-CD95L (ligand)

Reference: PMC12219679
